Assay results from PMC10281804, “The structural basis of the talin–KANK1 interaction that coordinates the actin and microtubule cytoskeletons at focal adhesions” (Open Biology, 2023).

Assays:
[1] = system: GFP–talin1–cBAK; assay: Mitochondrial targeting system (MTS): recruitment of mCherry–KANK1 by GFP–talin1–cBAK; format: cell-based; conditions: NIH3T3 fibroblasts and HEK293T cells; fluorescence microscopy colocalization
Description: To examine the effect of these KANK1 mutations on talin interactions in cells, we next used a mitochondrial targeting system (MTS) which we previously used to screen for defined protein–protein interactions. In this assay, one protein is fused to a small peptide sequence from the pro-apoptotic protein BAK (cBAK) which leads to its insertion into the outer membrane of mitochondria. Proteins that interact with the cBAK-tagged protein will get recruited to mitochondria, and this recruitment can be verified either by visualizing colocalization using fluorescence microscopy (figure 4a) or by purification of mitochondria followed by detection of co-precipitates using biochemistry (figure 4b,c). […] To confirm that the interaction was meditated by the R7 domain, we performed the colocalization assays with truncated talin constructs.
(§1) NIH3T3 mouse fibroblasts and HEK293T human epithelial cells were obtained from the American Type Culture Collection (ATCC). The vinculin null and WT mouse embryonic fibroblasts (MEFs) originate from the Eileen Adamson laboratory. All cells were maintained in Dulbecco's Modified Eagle Medium (DMEM; Sigma) supplemented with 10% fetal bovine serum (FBS, Gibco), 1% L-glutamine (Sigma) and 1% non-essential amino acids (Sigma). Talin1&2 null cells were cultured in DMEM F-12 (Gibco) supplemented with 10% FBS, 1% L-glutamine, 1% non-essential amino acids and […] HEPES (Sigma). All cells were cultured at 37̊C supplied with 5% CO2 and 95% humidity. Transient transfections were performed using Lipofectamine LTX with Plus Reagent (Invitrogen) to NIH3T3 cells, Lipofectamine 2000 (Invitrogen) to talin null cells, and jetPRIME reagent (Polyplus) to MEFs and HEK293T cells, as per the manufacturer's instructions.
(§2) For the construction of mCherry-KANK1, human FL-KANK1 (generous donation from the Bershadsky laboratory) cDNA was tagged in the C-terminal site with pmCherry (Clontech) by restriction digestion. Point mutations (L41E, L43E, F45E and V49E) were introduced in mCherry-KANK1 by site-directed mutagenesis (NEB) using the following oligonucleotides: […]ga[…] and […] for L41E; […]ga[…] and […] for L43E; […]gaa[…] and […] for F45E; […]a[…] and […] for V49E. Generation of GFP–talin1–cBAK and GFP–cBAK was as previously described. G1404L was introduced on GFP–talin1–cBAK by the method above using […]ctt[…] and […]. To generate GFP–talin1 R7DD–cBAK and GFP–talin1 R9DD-cBAK constructs, R7-DD (3555 bp) and R9-DD (2661 bp) were amplified from talin-1 (Mus musculus). Restriction digestion with XhoI and HindIII FastDigest enzymes (Thermo Scientific) was used to linearize GFP–cBAK. DNA assembly was performed to join R7-DD and R9-DD to linearized the GFP–cBAK vector using the NEBuilder HiFi DNA assembly kit (NEB).
(§3) Images of fixed samples in PBS were acquired at room temperature using an Olympus IX83 inverted microscope equipped with a 60×/1.42 PlanApo N oil objective and a QImaging Retiga R6 CCD camera, controlled by Metamorph software. Samples were illuminated using LEDs (UV/Cyan/Green-Yellow/Red, Lumencor) for fluorescence excitation; a Sedat filter set (DAPI/FITC/TRITC/Cy5, Chroma, 89000) was used.

[2] = system: focal adhesions of NIH3T3 fibroblasts; assay: KANK1 localization to focal adhesions (co-expression with GFP–paxillin); format: cell-based, mouse; conditions: NIH3T3 fibroblasts co-expressing GFP–paxillin
Method: as §1, §2, §3

Molecule | recruitment of mCherry–KANK1 to mitochondria by GFP–talin1–cBAK [1] | localization of mCherry–KANK1 to FAs / FA belt [2]
KANK1 WT: human FL-KANK1 tagged with pmCherry (protein, UniProt Q14678 1-1352, looked up, full-length mCherry fusion, human FL-KANK1 tagged with pmCherry) MAHTTKVNGSASGKAGDILSGDQDKEQKDPYFVETPYGYQLDLDFLKYVDDIQKGNTIKRLNIQKRRKPSVPCPEPRTTSGQQGIWTSTESLSSSNSDDNKQCPNFLIARSQVTSTPISKPPPPLETSLPFLTIPENRQLPPPSPQLPKHNLHVTKTLMETRRRLEQERATMQMTPGEFRRPRLASFGGMGTTSSLPSFVGSGNHNPAKHQLQNGYQGNGDYGSYAPAAPTTSSMGSSIRHSPLSSGISTPVTNVSPMHLQHIREQMAIALKRLKELEEQVRTIPVLQVKISVLQEEKRQLVSQLKNQRAASQINVCGVRKRSYSAGNASQLEQLSRARRSGGELYIDYEEEEMETVEQSTQRIKEFRQLTADMQALEQKIQDSSCEASSELRENGECRSVAVGAEENMNDIVVYHRGSRSCKDAAVGTLVEMRNCGVSVTEAMLGVMTEADKEIELQQQTIESLKEKIYRLEVQLRETTHDREMTKLKQELQAAGSRKKVDKATMAQPLVFSKVVEAVVQTRDQMVGSHMDLVDTCVGTSVETNSVGISCQPECKNKVVGPELPMNWWIVKERVEMHDRCAGRSVEMCDKSVSVEVSVCETGSNTEESVNDLTLLKTNLNLKEVRSIGCGDCSVDVTVCSPKECASRGVNTEAVSQVEAAVMAVPRTADQDTSTDLEQVHQFTNTETATLIESCTNTCLSTLDKQTSTQTVETRTVAVGEGRVKDINSSTKTRSIGVGTLLSGHSGFDRPSAVKTKESGVGQININDNYLVGLKMRTIACGPPQLTVGLTASRRSVGVGDDPVGESLENPQPQAPLGMMTGLDHYIERIQKLLAEQQTLLAENYSELAEAFGEPHSQMGSLNSQLISTLSSINSVMKSASTEELRNPDFQKTSLGKITGNYLGYTCKCGGLQSGSPLSSQTSQPEQEVGTSEGKPISSLDAFPTQEGTLSPVNLTDDQIAAGLYACTNNESTLKSIMKKKDGNKDSNGAKKNLQFVGINGGYETTSSDDSSSDESSSSESDDECDVIEYPLEEEEEEEDEDTRGMAEGHHAVNIEGLKSARVEDEMQVQECEPEKVEIRERYELSEKMLSACNLLKNTINDPKALTSKDMRFCLNTLQHEWFRVSSQKSAIPAMVGDYIAAFEAISPDVLRYVINLADGNGNTALHYSVSHSNFEIVKLLLDADVCNVDHQNKAGYTPIMLAALAAVEAEKDMRIVEELFGCGDVNAKASQAGQTALMLAVSHGRIDMVKGLLACGADVNIQDDEGSTALMCASEHGHVEIVKLLLAQPGCNGHLEDNDGSTALSIALEAGHKDIAVLLYAHVNFAKAQSPGTPRLGRKTSPGPTHRGSFD | readily recruits | readily localized to FAs, and predominantly to the typical ‘belt-like’ structure
KANK1 V49E: mCherry-KANK1 with point mutation V49E (protein, left off: mCherry, C-terminal, kept) MAHTTKVNGSASGKAGDILSGDQDKEQKDPYFVETPYGYQLDLDFLKYEDDIQKGNTIKRLNIQKRRKPSVPCPEPRTTSGQQGIWTSTESLSSSNSDDNKQCPNFLIARSQVTSTPISKPPPPLETSLPFLTIPENRQLPPPSPQLPKHNLHVTKTLMETRRRLEQERATMQMTPGEFRRPRLASFGGMGTTSSLPSFVGSGNHNPAKHQLQNGYQGNGDYGSYAPAAPTTSSMGSSIRHSPLSSGISTPVTNVSPMHLQHIREQMAIALKRLKELEEQVRTIPVLQVKISVLQEEKRQLVSQLKNQRAASQINVCGVRKRSYSAGNASQLEQLSRARRSGGELYIDYEEEEMETVEQSTQRIKEFRQLTADMQALEQKIQDSSCEASSELRENGECRSVAVGAEENMNDIVVYHRGSRSCKDAAVGTLVEMRNCGVSVTEAMLGVMTEADKEIELQQQTIESLKEKIYRLEVQLRETTHDREMTKLKQELQAAGSRKKVDKATMAQPLVFSKVVEAVVQTRDQMVGSHMDLVDTCVGTSVETNSVGISCQPECKNKVVGPELPMNWWIVKERVEMHDRCAGRSVEMCDKSVSVEVSVCETGSNTEESVNDLTLLKTNLNLKEVRSIGCGDCSVDVTVCSPKECASRGVNTEAVSQVEAAVMAVPRTADQDTSTDLEQVHQFTNTETATLIESCTNTCLSTLDKQTSTQTVETRTVAVGEGRVKDINSSTKTRSIGVGTLLSGHSGFDRPSAVKTKESGVGQININDNYLVGLKMRTIACGPPQLTVGLTASRRSVGVGDDPVGESLENPQPQAPLGMMTGLDHYIERIQKLLAEQQTLLAENYSELAEAFGEPHSQMGSLNSQLISTLSSINSVMKSASTEELRNPDFQKTSLGKITGNYLGYTCKCGGLQSGSPLSSQTSQPEQEVGTSEGKPISSLDAFPTQEGTLSPVNLTDDQIAAGLYACTNNESTLKSIMKKKDGNKDSNGAKKNLQFVGINGGYETTSSDDSSSDESSSSESDDECDVIEYPLEEEEEEEDEDTRGMAEGHHAVNIEGLKSARVEDEMQVQECEPEKVEIRERYELSEKMLSACNLLKNTINDPKALTSKDMRFCLNTLQHEWFRVSSQKSAIPAMVGDYIAAFEAISPDVLRYVINLADGNGNTALHYSVSHSNFEIVKLLLDADVCNVDHQNKAGYTPIMLAALAAVEAEKDMRIVEELFGCGDVNAKASQAGQTALMLAVSHGRIDMVKGLLACGADVNIQDDEGSTALMCASEHGHVEIVKLLLAQPGCNGHLEDNDGSTALSIALEAGHKDIAVLLYAHVNFAKAQSPGTPRLGRKTSPGPTHRGSFD | abolishes GFP–talin–cBAK mediated recruitment | abolished localization to FAs and the FA belt
